The values that follow come from article PMC8528861, “Structural and functional analysis of target recognition by the lymphocyte adaptor protein LNK” (Nature Communications, 2021).

Experiment [1] concerns the target T1, M. musculus LNK SH2 domain (residues 324–446), wild type (mouse, UniProt O09039 324-446).
T1 construct: LNK (SH2B3), mouse, SH2 domain with N-terminal helix, residues 324-446; vector pET-50b(+); also called WT LNK SH2; SH2B3 SH2 domain; source: E. coli (tuner (DE3), BL21(DE3) or C43), purified (His-Tag resin, TEV cleavage, SEC); not shown: NusA, N-terminal, cleaved
Kind of experiment: SPR; competition: biotinylated IL6ST pY757 peptide immobilised on a streptavidin chip; 0.1–0.5 μM WT LNK SH2 domain pre-incubated with phosphopeptide and flowed over; 10 mM HEPES pH 7.4, 150 mM NaCl, 3.4 mM EDTA, 0.005% Tween 20; response normalised to LNK only, IC50 fit. The settings on record: both partners purified. For orientation: In SPR one partner is held on a chip, and binding of the other changes the refractive index at the surface.

The target of experiment [2] is T1, M. musculus LNK SH2 domain (residues …). Described as above. The settings on record: both partners purified. The source holds these as a separate data set.

Where no end group is shown, it is not given here. [ ]: non-standard residue; d: D form. pY = N[C@@H](Cc1ccc(OP(=O)(O)O)cc1)C(=O)O

T1 sequence (O09039 324-446): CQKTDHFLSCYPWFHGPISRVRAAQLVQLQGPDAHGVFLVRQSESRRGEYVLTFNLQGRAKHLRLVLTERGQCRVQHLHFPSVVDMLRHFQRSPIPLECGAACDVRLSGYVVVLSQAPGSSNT

B1: JAK2 pY813 phosphopeptide (12-mer) (peptide)
peptide: FTPD[pY]ELLTEND
notes: JAK2, stretch around Y813; also called WT pY813 peptide
In the case of B1, the IC50 is 0.06 µM in experiment [1] and 0.138 µM in experiment [2].

B2: EPOR pY454 phosphopeptide (peptide)
peptide: PHLK[pY]LYLVVS
modifications: also: phosphotyrosine at 454 (Y5 or Y7)
notes: EPOR, intracellular site Y454
B2 yielded an IC50 in experiment [2] of 0.661 µM.

B3: MPL pY631 phosphopeptide (peptide)
peptide: LPLS[pY]WQQP
notes: MPL (TPO receptor), intracellular site Y631; also called TPOR pY631
B3 displayed an IC50 in experiment [2] greater than 10 µM.

B4: JAK2 pY813 peptide mutant +1R (peptide)
chain: FTPD[pY]RLLTEND
B4 had an IC50 in experiment [1] greater than 5 µM.

As usually defined, the IC50 is the midpoint of a concentration-inhibition curve. The low end stands for greater potency, the high end for weaker potency.
